Experimental data published in the RNAGym collection of RNA variant scans (doi:10.1073/pnas.2313332121).

B1: TPR t1 (parent)
chain: GACCAAUCUGCCCUCAGAGCUCGAGAACAUCUUCGGAUGCAGAGGAGGCAGGCUUCGGUGGCGCGAUAGCGCCAACGUCCUCAACCUCCAAUGCAUCCCACCACAUGAUGAUGCCUGAAGAGCCUUGGUUUUUUG

Variants of: B1
Assay: polymerase ribozyme fitness, log enrichment relative to wild type (log ratio); higher = more active; in vitro selection for triplet polymerase activity
Method in brief: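 Fitness is a logarithmic measure of how a genotype enriched relative to the wild type, with replicate averages weighted by inverse variance. The logarithm uses base 2, and enrichment came from Illumina sequencing of input and output libraries. Those libraries were PCR-built, transcribed mutants of each subunit of a heterodimeric triplet polymerase ribozyme, passed through one triplicate in vitro selection round that included frozen incubation at −7 °C, gel excision of extended constructs and streptavidin-bead capture. Genotypes were kept only if they had ≥10 input reads and ≥1 read per output.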

Row | Variant | polymerase ribozyme fitness (log ratio)
1 | G44A G63U | -1.78
2 | C3U G17A | -3.24
3 | A5C C12A C72U G113C | -3.72
4 | G63C C101U U130G | -0.981
5 | U14A G51U C124U G135A | -3.03
6 | A27G C28U U116C U130C | -5.27
7 | C40A G60A G93A A121U | 1
8 | G39A A50U A118U | -0.352
9 | U55A G69A C94A | -4.1
10 | C3U U9A C123A | 1.32
11 | G10A G48U G52A G77U | -2.41
12 | C11G C70G | -2.08
13 | C11A A29U U59A C70A G120A | -1.52
14 | G42U G48A G52C C56G G69U G127U | -3.16
15 | U109G G120A | -4.17
16 | A18G C82A | -4.16
17 | C79U U129G | -1.35
18 | C56A C80U C102A C124U | -2.1
19 | A27G G113U | -3.25
20 | C20A C28A G36A C72G A90C G110U | -6.43
21 | C13U G47A U78C G120A C123U U125A G128A | -0.365
22 | C11U G17A | -3
23 | C94A A100G C114U C124G | -5.66
24 | A41C G51U | -3.29

Row | Variant | polymerase ribozyme fitness (log ratio)
25 | C15A G39C A41U C101U | -3.77
26 | C40A G69C U106A C124A | -1.51
27 | C11U C79U U81C C94A G120U | -4.75
28 | U32C C73U G117U | -2.41
29 | C20U G25C C64A C70U C98G A111U | -6.27
30 | C8G C31U G71U G120U | -3.77
31 | A29U G60C C89A G110A | -5.77
32 | C86A G107U A121U U132C | -3.32
33 | A66U A90G A91G A103G G107C A121G | -5.84
34 | A6G G61C C89U | -2.67
35 | U87A C104G A111U | -3.77
36 | G51A G60A C80A A95G A111G | -4.57
37 | G71A U78C C114G | -5.04
38 | A41C C56G | -4.05
39 | A46U U87G G93A C98U | -1.2
40 | C53U C72G C104A A121C | -0.137
41 | U9A G52A C56A | -1.03
42 | G39C U59A C104A | -2.48
43 | A18U G52C G61C U87C G120C | -4.57
44 | A16C C53A C56A G60A | -4.12
45 | U9G C62U A74U | -0.576
46 | G10C A66U C97U G120U C123U | 0.489
47 | A16C C70U C85G | -3.97
48 | G63A G128C | -3.34

Row | Variant | polymerase ribozyme fitness (log ratio)
49 | G36A U59G G69A C94U G113A | -4.53
50 | A29G G42A G69C | -4.23
51 | C53U G120U | -0.193
52 | U54C U59C C94U A111G G128A U131A | -3.64
53 | U106G U112A G120C | -3.09
54 | G120U G135U | -1.2
55 | G39U U54G C56A A83C C89U | -3.7
56 | G120A C124U | 1.89
57 | C40U A90C U132A | -1.85
58 | G36U G47A C79U | -2.47
59 | C8G C12U C15U G120U | 2.64
60 | A2G A27G G52U G63C U87C | -2.6
61 | C85U C94G C104U | -1.9
62 | C40U C56A | -0.555
63 | C8G C40U G60C | -0.367
64 | C8A A16C G47A C70U G110A U131A | -3.91
65 | C3U G48A G60C G113A | -1.14
66 | A6C G39U G77U G113U C114G | -3.79
67 | A37U C80U C101A | -2.69
68 | G52C G69U | -0.241
69 | U32C G36A C64A A111G | -5.64
70 | C28U U112G | -1.97
71 | A2C G39C G69U U112C | -0.882
72 | A50G C56U G69C C123G C124G | -5.93

Row | Variant | polymerase ribozyme fitness (log ratio)
73 | C86G C94U G110A U129A | -4.63
74 | C12U C97G C104U | -2.92
75 | A2U G110C U131A | -5.15
76 | A2C C70U A91C C101U U112A U129C | -4.54
77 | C79U U92G C115G | -3.67
78 | G52U C72A C86A G113A G122C | -4.85
79 | C12G A27G A68G | -4.94
80 | C20A C86A U112C G117A | -5.64
81 | G58C A66G | -0.999
82 | A5G G113A | -0.636
83 | C12A C56A | -1.02
84 | G69C U92G | -4.02
85 | G44A C56G C76A C86A | -2.93
86 | C22U C72U | -3.69
87 | C8G C114U | -0.759
88 | C49A A111C G113U | -5.03
89 | A83C A84C G128A U131A | -2.01
90 | C72A A111U | -2.42
91 | G44U U55A A68U G69U C86G G120U | -7.36
92 | C80U C98A U132C | -5.2
93 | C4U U32A C89A U106C G110A | -5.64
94 | G52A G71C A95C G113C | -6.98
95 | C53U G57U | 0.599
96 | C8A U59A C82A U96A U112A | 0.158

Row | Variant | polymerase ribozyme fitness (log ratio)
97 | A37U G60U | -1.39
98 | C40A G52A C72U A91G | -4.17
99 | A2G U106G U125G | -2.92
100 | C11U U32A G93A A100U A105G | -4.99
101 | C13U A26G G60A G93C | -4.31
102 | C22G G69A C124A | -3.93
103 | C3U C70G | -2.84
104 | U33A A84U C97U | -4.91
105 | U9C G63C U96G C97A C123A | -3.72
106 | G60A A95G C104A U132C | -2.06
107 | C8U C22A G63U U81C A105G | -7.76
108 | C70G | -2.49
109 | C79U A90C G93A | -2.09
110 | C12A G42A | -1.63
111 | U54C C56A C89U | -0.439
112 | A46G C104A G113A | -2.84
113 | C53U C62U U106C G117U | -4.61
114 | C3G C97G | -5.54
115 | G61A C89G G93A | -2.18
116 | G10U U112G C123G | 0.673
117 | U7C G17C A121G | -1.82
118 | C28U G45A G52A U116C | -4.51
119 | A68G C124U | -1.26
120 | A46C U92C U106G C115U U125G U132A | -6.92

Row | Variant | polymerase ribozyme fitness (log ratio)
121 | C70G A83G U112C | -3.8
122 | C15A G117A U129C | -2.87
123 | G60U G107A | -3.31
124 | G48A C70U G71U | -0.828
125 | A18U G42C A43C G93C | -5.75
126 | A6C C12G G57U | -0.469
127 | C4U A27U | -2.79
128 | C34A G69U G135U | -0.532
129 | G45C U112C | 1.16
130 | C49U U130A | -0.901
131 | C89G A105G | -3.85
132 | G19C C89A U125G | -2.33
133 | C13U C56U C124G U131C | 2.69
134 | C73A U109C C114G C115A G122U | -7.04
135 | C20G G44A | -5.14
136 | G10C G110U | -2.66
137 | C28G G39U C53U G63C U78C C124A | -3.85
138 | A18C C89G | -2.48
139 | G61C A66C | -2.87
140 | A26U A43G G48U C94G G110A | -6.66
141 | G36U C56U | -1.07
142 | C20U A50U A83C | -5.22
143 | C11A C40U G45A C70A G120C | -1.21
144 | C72U G127C U132C | -1.97

Row | Variant | polymerase ribozyme fitness (log ratio)
145 | G17U C56G | -3.08
146 | G10A C15G A16G G63A C80U G113C | -4.34
147 | C56A U78C G93A C123U | 1.38
148 | G71A A90G | -1.65
149 | C12G A18C C88U | -2.16
150 | G61A G127U U134C | -0.718
151 | C11G U54A G93C | -0.558
152 | G57U C64U U78G C88A C98U U131C | -2.15
153 | C53A C70A A75U C79A C82G U112C | -3.2
154 | U38A U130C | -0.259
155 | C13A C20U | -3.77
156 | C8G C20U C40G A90U C102U | -6.69
157 | A18U G42A U130A | -3.41
158 | C34A G57A C72U G93A | -5.18
159 | G60U C62U G117U | -5.73
160 | C99U G120U | -3.34
161 | C13U A37U A66G | -0.629
162 | A18G G48U | -2.96
163 | A43C G77C | -2.27
164 | G17A U78A G117A | -2.6
165 | G42C A50U C76G A111U | -6.27
166 | U7G C31U | -3.68
167 | G42U A43C C104U | -0.998
